From paper PMC4923861

What was measured:
[1] = biological target: CAMSAP3/Marshalin-Ld, V5-His tagged (mouse) (UniProt Q80VC9)
[2] = biological target: CKK domain of mouse CAMSAP3/Marshalin-Ld (CKK1 or CKK2, not told for this experiment) (UniProt Q80VC9); test: GST pull-down; conditions: n = 4; parent: est. 1.0; read off a plot
[3] = biological target: CKK1, CKK domain construct of mouse CAMSAP3/Marshalin-Ld (residues 1020–1253) (mouse)

GST-tagged CDH23-C2 (mouse cadherin 23, C isoform, subtype 2) (natural protein)
decrease of the percent of OK cells with type III (long strings) CAMSAP3/Marshalin-Ld pattern on co-expression of CDH23-C2-GFP, against GFP (54.1% type III), 24 hours after co-transfection [1]: 20%

GST-CDH23-C_1–67 (first 67 residues of mouse CDH23-C; CKK binding motif, CBM) R55H
response (relative intensity) [2]: 0.65

GST-tagged CDH23-C1 (mouse cadherin 23, C isoform, subtype 1) (natural protein)
percent of OK cells with CKK1-induced MT bundles, CKK1 (V5-His) co-expressed with CDH23-C1-GFP, 44 to 68 hours after transfection (19.9% with GFP) [3]: 5.5% | decrease of the percent of OK cells with type III (long strings) CAMSAP3/Marshalin-Ld pattern on co-expression of CDH23-C1-GFP, against GFP (54.1% type III), 24 hours after co-transfection [1]: 21.3%
